From patent US20140314793A1 (BIOINVENT INTERNATIONAL, published 2014)

Assays:
[1] = molecular target: T1, intercellular cell adhesion molecule-1 (ICAM-1) on the surface of human cells (human, UniProt P05362 28-532); assay: FACS of bone marrow cells, patient 11
T1 construct: whole, on cells; Endogenous antigen; also called CD54

[2] = molecular target: T1, intercellular cell adhesion molecule-1 …; assay: FACS of bone marrow cells, patient 17
[3] = molecular target: T1, intercellular cell adhesion molecule-1 …; assay: flow cytometry on patient bone marrow cells
[4] = molecular target: T1, intercellular cell adhesion molecule-1 …; assay: FACS of bone marrow cells, patient 5
[5] = molecular target: T1, intercellular cell adhesion molecule-1 …; assay: saturation binding of radioiodinated IgG to Ramos cells, unlabelled IgG subtracted
Procedure: (§1) Specific binding was determined by subtracting binding in the presence of unlabeled competing protein from total binding.
(§2) Analysis was performed in triplicates.
(§3) The specific binding of [¹²⁵I]IgG to the cell surface was calculated by subtracting non-specific binding (binding in the presence of excess unlabelled IgG) from the total binding.

[6] = molecular target: T1, intercellular cell adhesion molecule-1 …; assay: FACS of bone marrow cells, patient 15
[7] = molecular target: T1, intercellular cell adhesion molecule-1 …; assay: FACS of bone marrow cells, patient 6
[8] = molecular target: T1, intercellular cell adhesion molecule-1 …; assay: FACS of bone marrow cells, patient 4
[9] = molecular target: T1, intercellular cell adhesion molecule-1 …; assay: 125I-IgG saturation binding on Ramos cells at 4° C., Rosenthal-Scatchard plot
Procedure: as §1
(§4) Antibody affinity constants (Kd values) and epitope numbers per cell were determined from Scatchard plot analysis according to Rosenthal et al. (Anal. Biochem. (1967) 20:525-532); Bylund and Yamamura (Methods in Neurotransmitter Analysed, New York: Raven Press Ltd., 1990); and Marquardt (J. Soc. Indust. Appl. Math. (1963) 11:431-441), as previously described (Brix et al., J. Clin. Invest. (1998) 102:283-293).
as §3

[10] = molecular target: T1, intercellular cell adhesion molecule-1 …; assay: FACS of bone marrow cells, patient 1
recombinant ICAM-1 = molecular target: T2, recombinant ICAM-1 (UniProt P05362 28-480); assay: ELISA on recombinant ICAM-1, luminescence
T2 construct: also called recombinant ICAM-1 protein
T2 sequence (P05362 28-480 limits assumed): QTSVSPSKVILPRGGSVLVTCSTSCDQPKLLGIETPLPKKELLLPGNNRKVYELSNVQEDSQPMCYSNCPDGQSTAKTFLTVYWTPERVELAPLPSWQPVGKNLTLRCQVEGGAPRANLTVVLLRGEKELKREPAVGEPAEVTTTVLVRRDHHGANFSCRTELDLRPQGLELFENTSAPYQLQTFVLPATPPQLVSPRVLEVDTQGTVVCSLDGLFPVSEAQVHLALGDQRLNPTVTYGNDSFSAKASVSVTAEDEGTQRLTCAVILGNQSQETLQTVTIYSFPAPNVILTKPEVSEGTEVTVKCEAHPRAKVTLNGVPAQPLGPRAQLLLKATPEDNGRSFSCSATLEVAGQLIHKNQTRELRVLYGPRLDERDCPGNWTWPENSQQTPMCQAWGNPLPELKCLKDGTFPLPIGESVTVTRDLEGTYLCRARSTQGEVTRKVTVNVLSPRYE

[11] = molecular target: T1, intercellular cell adhesion molecule-1 …; assay: flow cytometry on myeloma cells of one patient, relapse versus diagnosis
[12] = molecular target: T1, intercellular cell adhesion molecule-1 …; assay: FACS of tumor cells incubated with serially diluted AF647-BI-505 after FcγR pre-block with human IgG (receptor occupancy)
Procedure: The experiment was repeated three times and mean MFI values were calculated and plotted as a function of antibody concentration. […] The curve was fitted using a five-parameter log-log curve and XLfit software. […] Cells received treatment in triplicate and the experiment was repeated three to five times. […] In vitro PCD and in vivo anti-tumor activity were plotted as a function of receptor occupancy using curve fitting equations and data generated and described above.

[13] = molecular target: T1, intercellular cell adhesion molecule-1 …; assay: FACS of bone marrow cells, patient 19:2
[14] = molecular target: T1, intercellular cell adhesion molecule-1 …; assay: FACS of bone marrow cells, patient 9
[15] = molecular target: T1, intercellular cell adhesion molecule-1 …; assay: FACS of bone marrow cells, patient 13
[16] = molecular target: T1, intercellular cell adhesion molecule-1 …; assay: FACS of bone marrow cells, patient 10
ICAM-2 (recombinant) = molecular target: T3, ICAM-2 (recombinant) (UniProt P13598 25-223, limits assumed); assay: dose-dependent binding to recombinant protein (FIG. 12C b)
T3 sequence (looked up): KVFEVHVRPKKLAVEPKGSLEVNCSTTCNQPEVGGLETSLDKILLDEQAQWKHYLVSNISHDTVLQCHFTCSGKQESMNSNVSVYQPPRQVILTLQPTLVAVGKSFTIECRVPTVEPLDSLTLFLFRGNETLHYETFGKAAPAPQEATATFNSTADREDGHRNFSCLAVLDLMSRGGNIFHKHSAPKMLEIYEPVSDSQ

ICAM-3 (recombinant) = molecular target: T4, ICAM-3 (recombinant) (UniProt P32942 30-485, limits assumed); assay: as above
T4 sequence (looked up): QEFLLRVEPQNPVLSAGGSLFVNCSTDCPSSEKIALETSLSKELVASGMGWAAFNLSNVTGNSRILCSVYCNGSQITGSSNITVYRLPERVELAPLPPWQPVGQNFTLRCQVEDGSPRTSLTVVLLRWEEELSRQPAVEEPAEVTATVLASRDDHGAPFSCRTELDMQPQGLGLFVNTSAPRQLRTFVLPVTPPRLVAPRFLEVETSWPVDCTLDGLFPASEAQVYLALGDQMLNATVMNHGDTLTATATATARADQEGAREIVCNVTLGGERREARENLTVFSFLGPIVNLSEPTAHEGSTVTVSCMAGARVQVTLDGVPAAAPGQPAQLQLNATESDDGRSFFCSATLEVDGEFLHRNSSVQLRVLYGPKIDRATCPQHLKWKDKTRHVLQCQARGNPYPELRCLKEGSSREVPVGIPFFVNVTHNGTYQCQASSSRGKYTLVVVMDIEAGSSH

[17] = molecular target: T1, intercellular cell adhesion molecule-1 …; assay: flow cytometry, AF647 Zenon-labelled IgG
[18] = molecular target: T1, intercellular cell adhesion molecule-1 …; assay: FACS of bone marrow cells, patient 14
[19] = molecular target: T1, intercellular cell adhesion molecule-1 …; assay: FACS of bone marrow cells, patient 8
[20] = molecular target: T1, intercellular cell adhesion molecule-1 …; assay: FACS of bone marrow cells, patient 19:1
[21] = molecular target: T1, intercellular cell adhesion molecule-1 …; assay: FACS of bone marrow cells, patient 12
[22] = molecular target: T1, intercellular cell adhesion molecule-1 …; assay: FACS of bone marrow cells, patient 7
[23] = molecular target: T1, intercellular cell adhesion molecule-1 …; assay: FACS of bone marrow cells, patient 22
[24] = molecular target: T1, intercellular cell adhesion molecule-1 …; assay: FACS of bone marrow cells, patient 16
[25] = molecular target: T1, intercellular cell adhesion molecule-1 …; assay: FACS of bone marrow cells, patient 19:3
[26] = molecular target: T1, intercellular cell adhesion molecule-1 …; assay: FACS of bone marrow cells, patient 2
[27] = molecular target: T1, intercellular cell adhesion molecule-1 …; assay: flow cytometry on ARH-77 cells, % of maximal cell ICAM-1 binding
[28] = molecular target: T1, intercellular cell adhesion molecule-1 …; assay: 125I-IgG saturation binding, Rosenthal-Scatchard plot (legend of FIG. 5; Ramos cells in the panels, 'Raji cells' at the end of the sentence); legend of FIG. 5; Ramos cells (right panels, IgG B11), though the sentence ends '(Raji cells)'
Procedure: as §2, §4, §3

[29] = molecular target: T1, intercellular cell adhesion molecule-1 …; assay: FACS of bone marrow cells, patient 21
[30] = molecular target: T1, intercellular cell adhesion molecule-1 …; assay: FACS of bone marrow cells, patient 18
[31] = molecular target: T1, intercellular cell adhesion molecule-1 …; assay: FACS of bone marrow cells, patient 20

T1 sequence (P05362 28-532): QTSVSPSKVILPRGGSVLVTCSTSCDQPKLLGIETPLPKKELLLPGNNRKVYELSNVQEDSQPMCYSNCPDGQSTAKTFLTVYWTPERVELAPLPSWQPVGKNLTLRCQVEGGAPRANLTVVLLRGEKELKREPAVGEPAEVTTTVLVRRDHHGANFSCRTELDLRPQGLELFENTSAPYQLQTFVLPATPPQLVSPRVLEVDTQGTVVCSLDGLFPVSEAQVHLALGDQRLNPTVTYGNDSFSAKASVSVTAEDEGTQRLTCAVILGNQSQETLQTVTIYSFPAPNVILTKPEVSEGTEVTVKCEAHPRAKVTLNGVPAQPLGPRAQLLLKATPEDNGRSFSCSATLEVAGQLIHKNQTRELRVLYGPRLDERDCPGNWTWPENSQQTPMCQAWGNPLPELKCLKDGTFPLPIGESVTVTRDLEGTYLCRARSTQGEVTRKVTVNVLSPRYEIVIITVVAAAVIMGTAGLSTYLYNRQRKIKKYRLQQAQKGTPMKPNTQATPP

B1: B11 IgG1 (BI-505), fully human anti-ICAM-1 antibody (antibody, V domains shown)
VH: EVQLLESGGGLVQPGGSLRLSCAASGFTFSNAWMSWVRQAPGKGLEWVAFIWYDGSNKYYADSVKGRFTISRDNSKNTLYLQMNSLRAEDTAVYYCARYSGWYFDYWGQGTLVTVSS
VL: QSVLTQPPSASGTPGQRVTISCTGSSSNIGAGYDVHWYQQLPGTAPKLLIYDNNNRPSGVPDRFSGSKSGTSASLAISGLRSEDEADYYCQSYDSSLSAWLFGGGTKLTVL
notes: That 6 is VH and 8 is VL follows only from the order 'VH and VL'; also called IgG B11
fold increase of BI-505 epitope on MM cells compared to normal B cells [1]: 10 fold | fold increase of BI-505 epitope on MM cells compared to normal B cells [2]: 11 fold | fold expression of the epitope, myeloma cells versus normal B cells [3]: 10 fold | fold increase of BI-505 epitope on MM cells compared to normal B cells [4]: 9 fold | EC50 (read off the curve) [5]: ~0.3 nM | fold increase of BI-505 epitope on MM cells compared to normal B cells [6]: 27 fold | fold increase of BI-505 epitope on MM cells compared to normal B cells [7]: 9 fold | fold increase of BI-505 epitope on MM cells compared to normal B cells [8]: 9 fold | Kd [9]: ~0.2 nM | fold increase of BI-505 epitope on MM cells compared to normal B cells [10]: 55 fold | EC50 (read off the curve) (recombinant ICAM-1): ~0.3 nM | fold expression of the epitope after first relapse [11]: 2 fold | EC50 (read off the curve) [12]: ~0.4 µg/mL | fold increase of BI-505 epitope on MM cells compared to normal B cells [13]: 6 fold | fold increase of BI-505 epitope on MM cells compared to normal B cells [14]: 18 fold | fold increase of BI-505 epitope on MM cells compared to normal B cells [15]: 47 fold | fold increase of BI-505 epitope on MM cells compared to normal B cells [16]: 4 fold | binding result (ICAM-2 (recombinant)): no binding | binding result (ICAM-3 (recombinant)): no binding | fold binding, Ramos versus NK cells [17]: 23 fold | fold binding, Ramos versus monocyte cells [17]: 3.7 fold | fold binding, Ramos versus peripheral blood B lymphocytes [17]: 8.3 fold | fold increase of BI-505 epitope on MM cells compared to normal B cells [18]: 5 fold | fold increase of BI-505 epitope on MM cells compared to normal B cells [19]: 12 fold | fold increase of BI-505 epitope on MM cells compared to normal B cells [20]: 10 fold | fold increase of BI-505 epitope on MM cells compared to normal B cells [21]: 16 fold | fold increase of BI-505 epitope on MM cells compared to normal B cells [22]: 45 fold | fold increase of BI-505 epitope on MM cells compared to normal B cells [23]: 6 fold | fold increase of BI-505 epitope on MM cells compared to normal B cells [24]: 3 fold | fold increase of BI-505 epitope on MM cells compared to normal B cells [25]: 4 fold | fold increase of BI-505 epitope on MM cells compared to normal B cells [26]: 8 fold | EC50 (read off the curve) [27]: ~0.05 µg/mL | Kd [28]: ~0.3 nM | fold increase of BI-505 epitope on MM cells compared to normal B cells [29]: 4 fold | fold increase of BI-505 epitope on MM cells compared to normal B cells [30]: 8 fold | fold increase of BI-505 epitope on MM cells compared to normal B cells [31]: 27 fold

B2: BI-505 IgG1 N297Q (antibody, V domains shown)
VH: EVQLLESGGGLVQPGGSLRLSCAASGFTFSNAWMSWVRQAPGKGLEWVAFIWYDGSNKYYADSVKGRFTISRDNSKNTLYLQMNSLRAEDTAVYYCARYSGWYFDYWGQGTLVTVSS
VL: QSVLTQPPSASGTPGQRVTISCTGSSSNIGAGYDVHWYQQLPGTAPKLLIYDNNNRPSGVPDRFSGSKSGTSASLAISGLRSEDEADYYCQSYDSSLSAWLFGGGTKLTVLG
notes: also called Fc-mut; BI-505N297Q
EC50 (read off the curve) (recombinant ICAM-1): ~0.2 nM | EC50 (read off the curve) [27]: ~0.05 µg/mL

B3: BI-505 IgG4 (antibody, V domains shown)
VH: EVQLLESGGGLVQPGGSLRLSCAASGFTFSNAWMSWVRQAPGKGLEWVAFIWYDGSNKYYADSVKGRFTISRDNSKNTLYLQMNSLRAEDTAVYYCARYSGWYFDYWGQGTLVTVSS
VL: QSVLTQPPSASGTPGQRVTISCTGSSSNIGAGYDVHWYQQLPGTAPKLLIYDNNNRPSGVPDRFSGSKSGTSASLAISGLRSEDEADYYCQSYDSSLSAWLFGGGTKLTVLG
EC50 (read off the curve) (recombinant ICAM-1): ~0.2 nM | EC50 (read off the curve) [27]: ~0.05 µg/mL
